Test results taken from publication PMC6720452, “Structural Basis for Recruitment of DAPK1 to the KLHL20 E3 Ligase” (Structure(London, England:1993), 2019).

Experiments:
full-length KLHL20 = test: Cycloheximide chase assay in HEK293T cells; assay type: cell-based, human; settings: 100 μg/mL cycloheximide, 0-6h; for Half-life / degradation of DAPK1 on KLHL20 co-expression: with vs without full-length KLHL20, Western blot normalized to GAPDH
Description: (§1) To confirm the identified “LPDLV” motif as a regulatory site for DAPK1 interaction and degradation, we performed immunoprecipitation and cycloheximide (CHX) chase experiments in HEK293T cells. […] We then performed a CHX chase assay to compare the degradation of DAPK1 variants in the presence or absence of full-length KLHL20.
Figure 6 Mutations in the DAPK1 “LPDLV” Motif Impair DAPK1 Binding and Degradation by KLHL20 (A) Full-length DAPK1 variants and KLHL20 Kelch domain were co-transfected into HEK293T cells as indicated. FLAG-KLHL20 Kelch domain was immunoprecipitated (IP) with anti-FLAG antibody. DAPK1 WT was robustly co-purified with KLHL20, whereas DAPK1 mutant was only recovered at the background level of the beads alone. (B) DAPK1 variants were transfected into HEK293T cells with or without full-length KLHL20 as indicated. At 24 h post transfection, cells were incubated with 100 μg/mL cycloheximide (CHX) and harvested at different time points as indicated. DAPK1 protein levels were detected by western blot and normalized to GAPDH. (C) Quantitation of (B).
For structural and biophysical studies, the Kelch domains of human KLHL20 (Uniprot Q9Y2M5 isoform 1, M303-E605) and KLHL3 (Uniprot Q9UH77 isoform 1, residues S298–L587) were cloned using ligation-independent cloning into the bacterial expression vector pNIC28-Bsa4 (GenBank accession number EF198106), which provides for an N-terminal hexahistidine tag and TEV cleavage site. For cellular assays, full length DAPK1 was cloned into pcDNA3.1(+) providing an N-terminal HA tag. The mutant DAPK1 (1336-‘LPDLV’ motif mutated to ‘LPAAV’) was created in the same vector by site directed mutagenesis. […]
HEK293T cells were cultured as described above until 60% confluency. […] Results were analyzed using Western blotting with corresponding antibodies. GAPDH level in each sample was also detected for control (anti-GAPDH antibody; Thermo Fisher, MA5-15738). Western blot band intensities were quantified using Image Studio Lite Ver 5.2 and normalized for the GADPH control.

FLAG-KLHL20 Kelch domain = test: Co-immunoprecipitation of KLHL20 and DAPK1 in HEK293T cells; assay type: cell-based, human; settings: FLAG-KLHL20 Kelch domain and HA-DAPK1 full-length co-transfected, 40 hours after transfection, anti-FLAG IP, Western blot
Description: as §1
Figure 6 Mutations in the DAPK1 “LPDLV” Motif Impair DAPK1 Binding and Degradation by KLHL20 (A) Full-length DAPK1 variants and KLHL20 Kelch domain were co-transfected into HEK293T cells as indicated. FLAG-KLHL20 Kelch domain was immunoprecipitated (IP) with anti-FLAG antibody. DAPK1 WT was robustly co-purified with KLHL20, whereas DAPK1 mutant was only recovered at the background level of the beads alone. (B) DAPK1 variants were transfected into HEK293T cells with or without full-length KLHL20 as indicated. […] DAPK1 protein levels were detected by western blot and normalized to GAPDH. (C) Quantitation of (B). […]
HEK293T cells were cultured in high glucose Dulbecco’s Modified Eagle’s Medium (Sigma-Aldrich) with 5% Penicillin Streptomycin (ThermoFisher) and 10% Fetal Bovine Serum (Sigma-Aldrich) inside a 5% CO2 incubator at 37°C. […] Results were analyzed using Western blotting (Anti-Flag antibody, Sigma-Aldrich, F1804; Anti-HA antibody, Biolegend, 901501; Anti-Myc antibody, Cell signalling, 2040S).

B1: DAPK1 WT: full-length HA-DAPK1 wild-type (protein)
chain: MTVFRQENVDDYYDTGEELGSGQFAVVKKCREKSTGLQYAAKFIKKRRTKSSRRGVSREDIEREVSILKEIQHPNVITLHEVYENKTDVILILELVAGGELFDFLAEKESLTEEEATEFLKQILNGVYYLHSLQIAHFDLKPENIMLLDRNVPKPRIKIIDFGLAHKIDFGNEFKNIFGTPEFVAPEIVNYEPLGLEADMWSIGVITYILLSGASPFLGDTKQETLANVSAVNYEFEDEYFSNTSALAKDFIRRLLVKDPKKRMTIQDSLQHPWIKPKDTQQALSRKASAVNMEKFKKFAARKKWKQSVRLISLCQRLSRSFLSRSNMSVARSDDTLDEEDSFVMKAIIHAINDDNVPGLQHLLGSLSNYDVNQPNKHGTPPLLIAAGCGNIQILQLLIKRGSRIDVQDKGGSNAVYWAARHGHVDTLKFLSENKCPLDVKDKSGEMALHVAARYGHADVAQLLCSFGSNPNIQDKEEETPLHCAAWHGYYSVAKALCEAGCNVNIKNREGETPLLTASARGYHDIVECLAEHGADLNACDKDGHIALHLAVRRCQMEVIKTLLSQGCFVDYQDRHGNTPLHVACKDGNMPIVVALCEANCNLDISNKYGRTPLHLAANNGILDVVRYLCLMGASVEALTTDGKTAEDLARSEQHEHVAGLLARLRKDTHRGLFIQQLRPTQNLQPRIKLKLFGHSGSGKTTLVESLKCGLLRSFFRRRRPRLSSTNSSRFPPSPLASKPTVSVSINNLYPGCENVSVRSRSMMFEPGLTKGMLEVFVAPTHHPHCSADDQSTKAIDIQNAYLNGVGDFSVWEFSGNPVYFCCYDYFAANDPTSIHVVVFSLEEPYEIQLNQVIFWLSFLKSLVPVEEPIAFGGKLKNPLQVVLVATHADIMNVPRPAGGEFGYDKDTSLLKEIRNRFGNDLHISNKLFVLDAGASGSKDMKVLRNHLQEIRSQIVSVCPPMTHLCEKIISTLPSWRKLNGPNQLMSLQQFVYDVQDQLNPLASEEDLRRIAQQLHSTGEINIMQSETVQDVLLLDPRWLCTNVLGKLLSVETPRALHHYRGRYTVEDIQRLVPDSDVEELLQILDAMDICARDLSSGTMVDVPALIKTDNLHRSWADEEDEVMVYGGVRIVPVEHLTPFPCGIFHKVQVNLCRWIHQQSTEGDADIRLWVNGCKLANRGAELLVLLVNHGQGIEVQVRGLETEKIKCCLLLDSVCSTIENVMATTLPGLLTVKHYLSPQQLREHHEPVMIYQPRDFFRAQTLKETSLTNTMGGYKESFSSIMCFGCHDVYSQASLGMDIHASDLNLLTRRKLSRLLDPPDPLGKDWCLLAMNLGLPDLVAKYNTSNGAPKDFLPSPLHALLREWTTYPESTVGTLMSKLRELGRRDAADFLLKASSVFKINLDGNGQEAYASSCNSGTSYNSISSVVSR
modifications: left off: HA, N-terminal, kept
notes: full-length HA-DAPK1 wild-type
Half-life / degradation of DAPK1 on KLHL20 co-expression (full-length KLHL20): striking reduction in the half-life | Recovery of DAPK1 in KLHL20 immunoprecipitation (FLAG-KLHL20 Kelch domain): robustly bound to KLHL20

B2: DAPK1 mutant: full-length DAPK1 mutant in which the critical 1,336-“LPDLV” motif was mutated to “LPAAV” (protein)
chain: MTVFRQENVDDYYDTGEELGSGQFAVVKKCREKSTGLQYAAKFIKKRRTKSSRRGVSREDIEREVSILKEIQHPNVITLHEVYENKTDVILILELVAGGELFDFLAEKESLTEEEATEFLKQILNGVYYLHSLQIAHFDLKPENIMLLDRNVPKPRIKIIDFGLAHKIDFGNEFKNIFGTPEFVAPEIVNYEPLGLEADMWSIGVITYILLSGASPFLGDTKQETLANVSAVNYEFEDEYFSNTSALAKDFIRRLLVKDPKKRMTIQDSLQHPWIKPKDTQQALSRKASAVNMEKFKKFAARKKWKQSVRLISLCQRLSRSFLSRSNMSVARSDDTLDEEDSFVMKAIIHAINDDNVPGLQHLLGSLSNYDVNQPNKHGTPPLLIAAGCGNIQILQLLIKRGSRIDVQDKGGSNAVYWAARHGHVDTLKFLSENKCPLDVKDKSGEMALHVAARYGHADVAQLLCSFGSNPNIQDKEEETPLHCAAWHGYYSVAKALCEAGCNVNIKNREGETPLLTASARGYHDIVECLAEHGADLNACDKDGHIALHLAVRRCQMEVIKTLLSQGCFVDYQDRHGNTPLHVACKDGNMPIVVALCEANCNLDISNKYGRTPLHLAANNGILDVVRYLCLMGASVEALTTDGKTAEDLARSEQHEHVAGLLARLRKDTHRGLFIQQLRPTQNLQPRIKLKLFGHSGSGKTTLVESLKCGLLRSFFRRRRPRLSSTNSSRFPPSPLASKPTVSVSINNLYPGCENVSVRSRSMMFEPGLTKGMLEVFVAPTHHPHCSADDQSTKAIDIQNAYLNGVGDFSVWEFSGNPVYFCCYDYFAANDPTSIHVVVFSLEEPYEIQLNQVIFWLSFLKSLVPVEEPIAFGGKLKNPLQVVLVATHADIMNVPRPAGGEFGYDKDTSLLKEIRNRFGNDLHISNKLFVLDAGASGSKDMKVLRNHLQEIRSQIVSVCPPMTHLCEKIISTLPSWRKLNGPNQLMSLQQFVYDVQDQLNPLASEEDLRRIAQQLHSTGEINIMQSETVQDVLLLDPRWLCTNVLGKLLSVETPRALHHYRGRYTVEDIQRLVPDSDVEELLQILDAMDICARDLSSGTMVDVPALIKTDNLHRSWADEEDEVMVYGGVRIVPVEHLTPFPCGIFHKVQVNLCRWIHQQSTEGDADIRLWVNGCKLANRGAELLVLLVNHGQGIEVQVRGLETEKIKCCLLLDSVCSTIENVMATTLPGLLTVKHYLSPQQLREHHEPVMIYQPRDFFRAQTLKETSLTNTMGGYKESFSSIMCFGCHDVYSQASLGMDIHASDLNLLTRRKLSRLLDPPDPLGKDWCLLAMNLGLPAAVAKYNTSNGAPKDFLPSPLHALLREWTTYPESTVGTLMSKLRELGRRDAADFLLKASSVFKINLDGNGQEAYASSCNSGTSYNSISSVVSR
modifications: left off: HA, N-terminal, kept
Half-life of DAPK1 mutant compared with DAPK1 WT (full-length KLHL20; with or without full-length KLHL20, Western blot normalized to GAPDH): exceeded that of DAPK1 WT under any of the conditions above | Half-life / degradation of DAPK1 on KLHL20 co-expression (full-length KLHL20): strikingly resistant to KLHL20 co-expression | Recovery of DAPK1 in KLHL20 immunoprecipitation (FLAG-KLHL20 Kelch domain): only recovered at a low background level
